In article PMC11749594, “Tracing TMEM106B fibril deposition in aging and Parkinson’s disease with dementia brains” (Life Medicine, 2024):

Molecular target: the molecule itself
Assay: cryo-EM structure; fibrils extracted from the frontal cortex of case 1 of PDD, pretreated with pronase for 30 min; helical reconstruction at 3.5 Å

B1: TMEM106B fibril (Type 1) extracted from the frontal cortex of case 1 of PDD (domain or fragment, human (endogenous in brain tissue), UniProt Q9NUM4 120-254, looked up)
chain: SIDVKYIGVKSAYVSYDVQKRTIYLNITNTLNITNNNYYSVEVENITAQVQFSKTVIGKARLNNITIIGPLDMKQIDYTVPTVIAEEMSYMYDFCTLISIKVHNIVLMMQVTVTTTYFGHSEQISQERYQYVDCG
modifications: four potentially glycosylated Asn residues
notes: Transmembrane protein 106B (TMEM106B), human, fibril core of residues 120-254 (luminal domain); Amyloid fibril with many stacked copies of the chain; the atomic model was built as three layers; Residues 120-254 are the ordered core seen by cryo-EM; also called Transmembrane protein 106B fibril; brain-extracted TMEM106B fibril; source: extracted from postmortem human brain (frontal lobe, case 1 of …)
binding result: binds
